Assay results reported in PMC8786727, “Oligomerization of the FliF Domains Suggests a Coordinated Assembly of the Bacterial Flagellum MS Ring” (Frontiers in Microbiology, 2021).

Tests used:
[1] = target: the molecule itself; assay: cryo-EM 2D classification; protein at 10 mg/ml in 50 mM Hepes pH 9.0, 150 mM NaCl; symmetry read from top-view 2D classes; no 3D structure
[2] = target: the molecule itself; assay: SEC; purified protein on Superdex 200 10/300 or Superose 6 10/300; 50 mM Hepes pH 8.0 or 9.0, 500 mM NaCl; oligomeric state from the elution volume

B1: S. Typhimurium FliF RBM1-RBM2-RBM3 (FliF_(50–438)) (domain or fragment)
chain: DYRTLFSNLSDQDGGAIVAQLTQMNIPYRFANGSGAIEVPADKVHELRLRLAQQGLPKGGAVGFELLDQEKFGISQFSEQVNYQRALEGELARTIETLGPVKSARVHLAMPKPSLFVREQKSPSASVTVTLEPGRALDEGQISAVVHLVSSAVAGLPPGNVTLVDQSGHLLTQSNTSGRDLNDAQLKFANDVESRIQRRIEAILSPIVGNGNVHAQVTAQLDFANKEQTEEHYSPNGDASKATLRSRQLNISEQVGAGYPGGVPGALSNQPAPPNEAPIATPPTNQQNAQNTPQTSTSTNSNSAGPRSTQRNETSNYEVDRTIRHTKMNVGDIERLSVAVVVNYKTLADGKPLPLTADQMKQIEDLTREAMGFSDKRGDTLNVVNSPFS
notes: FliF (flagellar M-ring protein), Salmonella enterica serovar Typhimurium, residues 50-438 (RBM1, RBM2 and RBM3, without the two trans-membrane helices); full length is 1-560; Synthetic gene in pET-28a; 33-fold symmetry seen in top-view cryo-EM 2D classes; the rings also stick together (~10 MDa by SEC-MALS); also called StFliF_(50–438); periplasmic region of FliF; source: E. coli BL21 DE3, …
stoichiometry N [1]: 33

B2: S. Typhimurium FliF RBM3 (FliF_(231–438)) (domain or fragment)
chain: NDAQLKFANDVESRIQRRIEAILSPIVGNGNVHAQVTAQLDFANKEQTEEHYSPNGDASKATLRSRQLNISEQVGAGYPGGVPGALSNQPAPPNEAPIATPPTNQQNAQNTPQTSTSTNSNSAGPRSTQRNETSNYEVDRTIRHTKMNVGDIERLSVAVVVNYKTLADGKPLPLTADQMKQIEDLTREAMGFSDKRGDTLNVVNSPFS
notes: FliF, Salmonella enterica serovar Typhimurium, residues 231-438 (RBM3); Made by site-directed mutagenesis from the FliF 50-438 pET-28a construct; Forms rings; the number of subunits of this construct was not measured; source: E. coli BL21 DE3, purified (Ni-NTA, SEC on Superose 6)
binding result [2]: binds

B3: S. Typhimurium FliF RBM2 (FliF_(124–229)) (domain or fragment)
chain: SQFSEQVNYQRALEGELARTIETLGPVKSARVHLAMPKPSLFVREQKSPSASVTVTLEPGRALDEGQISAVVHLVSSAVAGLPPGNVTLVDQSGHLLTQSNTSGRD
notes: FliF, Salmonella enterica serovar Typhimurium, residues 124-229 (RBM2 and linker L2); Made by site-directed mutagenesis from the FliF 50-438 pET-28a construct; also called RBM2 + L2; source: E. coli BL21 DE3, purified (Ni-NTA, SEC on Superdex 200); copies: 23
stoichiometry N [1]: 23
